Here are results for 1 substance from patent publication US20220195007A1.

In this test the target is CD20 polypeptide (safety switch) expressed on transduced T cells (human) (UniProt P11836). Briefly: cell-based or functional assay.
Sequence of UniProt P11836 (P11836 whole entry): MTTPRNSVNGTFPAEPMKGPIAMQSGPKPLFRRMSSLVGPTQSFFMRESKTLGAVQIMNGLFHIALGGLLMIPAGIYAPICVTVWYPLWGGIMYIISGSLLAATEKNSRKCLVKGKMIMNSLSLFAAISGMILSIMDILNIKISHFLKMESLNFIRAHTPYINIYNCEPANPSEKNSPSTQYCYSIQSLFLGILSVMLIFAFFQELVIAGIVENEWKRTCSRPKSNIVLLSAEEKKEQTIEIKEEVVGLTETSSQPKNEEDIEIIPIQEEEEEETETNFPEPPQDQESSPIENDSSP

As for Rituximab (Rituxan®, Biogen) (antibody), the 4-hour chromium release assay on IL13Rα2-CAR^CD20 T cells turned out to be 70%; the decrease in CD20+ cell number by flow cytometry after 1 hour (rituximab + complement vs rituximab alone) is greater than 30%; the killing of CD123-CAR T cells by rituximab and complement was 80%.
